{"source": "the DeepSol protein solubility set", "data": [{"experiment": "soluble on expression in E. coli; label from the status in PepcDB or PDB records", "values": [{"sequence": "MSLRVTDFSFELPESLIAHYPMPERSSCRLLSLDGPTGALTHGTFTDLLDKLNPGDLLVFNNTRVIPARLFGRKASGGKIEVLVERMLDDKRILAHIRASKAPKPGAELLLGDDESINATMTARHGALFEVEFNDERSVLDILNSIGHMPLPPYIDRPDEDADRELYQTVYSEKPGAVAAPTAGLHFDEPLLEKLRAKGVEMAFVTLHVGAGTFQPVRVDTIEDHIMHSEYAEVPQDVVDAVLAAKARGNRVIAVGTTSVRSLESAAQAAKNDLIEPFFDDTQIFIYPGFQYKVVDALVTNFHLPESTLIMLVSAFAGYQHTMNAYKAAVEEKYRFFSYGDAMFITYNPQAINERVGEEGGSHHHHHH", "soluble on expression in E. coli": "soluble"}, {"sequence": "MGHHHHHHSHMLAQPEPLVWVSKWVDYSNKFGFGYQLSSRRVAVLFNDGTHMALSANRKTVHYNPTSTKHFSFSVGAVPRALQPQLGILRYFASYMEQHLMKGGDLPSVEEVEVPAPPLLLQWVKTDQALLMLFSDGTVQVNFYGDHTKLILSGWEPLLVTFVARNRSACTYLASHLRQLGCSPDLRQRLRYALRLLRDRSPA", "soluble on expression in E. coli": "not soluble"}, {"sequence": "SDGPERDFNLKVVLISFKKCLTDKGEVLLDHYTASWKGLVRFLNSLGAVFSFISKDVVSKLQIMEHLRSGPQSEHYISLQSMVAYEVSNKLVDRDSRSRPRHPNSGCRTVLRLHRALHWLQLFLEGLRTSSEDARTSTLCSEAYNATLAAYHSWIVRQAVNVAFHALPPRKVFLEAMNMGSSEQAVEMLGEALPFIEQVYDISQKLYAEHSLLDLP", "soluble on expression in E. coli": "soluble"}, {"sequence": "MGSDKIHHHHHHMPGFNSSPASEKSSLLRQHFPLVTIPEYNSWDPDIAYIQLEQAILPLLNQGVLLTGSSLGGFWAYQFACRYRQPCLLINPCMHPELSLQRYIGKVENFYSHEQGWLTEAHLGKYAAYRVNGQPSRLTVLHEQGDELIPYMESVVNFSGKAKLILPGGGHHRFARTDLIAACIRDMLPPEDAGHQKA", "soluble on expression in E. coli": "not soluble"}, {"sequence": "FDKVKVSTNFTYTLNQNKIVSLANGAINPETGEAIEMEYYSKGTLGTSGGPTLRLYENGSMGDIYINQRLRQSPNGYIWKDPSNGSLAIENTEYRKVGSILPKYYLGWNGSVAWKGWNLGFAFTGRFGGLVVSDTQAMIDKYGVSESSAVARQAGGVWVGDSKVDAEEYYSKVTTAVGTYYTYSATNIRLSELSLSYQLPKTWFKNHVNMTLGLTGKNLWMIYCKAPYDPESTSSVTSNFYQGVDYFQQPSLRSLGFNVKLTF", "soluble on expression in E. coli": "not soluble"}, {"sequence": "MAHHHHHHMTNRGVVNAEELRGAVCAIVSRYQKTPQRRLLVCVAGRPGSGKTTIANILAEEARELLRKVSSDPRDHAENAVVVMPMDGYHLYRKTLHAMPNREEAIARRGAEWTFDARKLCRDLQAIRLPSETADKKGAPLYDDVFVPSFDHSVGDPKERDICVSGSAAIVIVEGNYLLYRGTPTWAEVNRCFDMGVFQACPAATCARRLCRRHMAAWGISEAEAMVRATGSDAMNGDLVETTGKNADIVLHSIESSI", "soluble on expression in E. coli": "soluble"}, {"sequence": "MGNTDKLMNQIFELKFTSKSLQRQARKCEKEERSEKLKVKKAIEKGNMDGARIYAENAIRKRSEQMNYLRLSSRLDAVVARLDTQAKMATITKSMTNIVKSLESSLTTGNLQKMSETMDSFEKQFVNMEVQAEFMDNAMAGSTSLSTPEGEVNSLMQQVADDYGLEVSVGLPQPAGHAIPTKTEEKVEEDDLTRRLAELKARG", "soluble on expression in E. coli": "not soluble"}, {"sequence": "TKDFSWNTTFNISHNKNEIVTLDGMQTEIISGTQIRKVGKSYRTFYMIEFAGINPETGAPQFYTNDLDENGNYIKEITEKYSEANAIVLDKHAEPNVIGGLSNTLRYKWFDLNFMFSYQFGGYSYDNWAQKTEHGGNDLEANIPTYYRDSWKQPGDITKYELFIESPDVAMNKSTTTRRLHSSDFIRLKTLTFGITLPQVWTQKIGVNNVRVYASANNLWTWAAYDYYDPEAVSGGSAIWGTPPLKTVTFGLSVNF", "soluble on expression in E. coli": "not soluble"}, {"sequence": "MGSDKIHHHHHHMQHHKVAIIGAGAAGIGMAITLKDFGITDVIILEKGTVGHSFKHWPKSTRTITPSFTSNGFGMPDMNAISMDTSPAFTFNEEHISGETYAEYLQVVANHYELNIFENTVVTNISADDAYYTIATTTETYHADYIFVATGDYNFPKKPFKYGIHYSEIEDFDNFNKGQYVVIGGNESGFDAAYQLAKNGSDIALYTSTTGLNDPDADPSVRLSPYTRQRLGNVIKQGARIEMNVHYTVKDIDFNNGQYHISFDSGQSVHTPHEPILATGFDATKNPIVQQLFVTTNQDIKLTTHDESTRYPNIFMIGATVENDNAKLCYIYKFRARFAVLAHLLTQREGLPAKQEVIENYQKNQMYLDDYSCCEVSCTC", "soluble on expression in E. coli": "not soluble"}, {"sequence": "ENQYVMKLANSLFVQNGFHVNEEFLQMLKMYFNAEVNHVDFSQNVAVANSINKWVENYTNSLLKDLVSPEDFDGVTNLALINAVYFKGNWKSQFRPENTRTFSFTKDDESEVQIPMMYQQGEFYYGEFSDGSNEAGGIYQVLEIPYEGDEISMMLALSRQEVPLATLEPLLKAQLIEEWANSVKKQKVEVYLPRFTVEQEIDLKDILKALGVTEIFIKDANLTAMSDKKELFLSKAVHKSCIEVNEEGSEAAAASGMIAIS", "soluble on expression in E. coli": "soluble"}, {"sequence": "MGSDKIHHHHHHMSSDVQKGDNLETPGARDLLLQTASNIMREGDVVDISLSELSLRSGLNSALVKYYFGNKAGLLKALLDRDMENIVKSVDALLAKDDMSPEAKLRRHISKCIDTYYDYPYLNRLLMRLVRDSDEAEAKRIADQYLLPLHRAYNRFIGEGVKAGVFRPINPQLFYFTVTGAADRFFSARLVLKHCFDQDTLTEQLRDSYREHTVDFIMAGILAH", "soluble on expression in E. coli": "not soluble"}, {"sequence": "MRSTKVIHIVGCHAEGEVGDVIVGGVAPPPGETVWEQSRFIANDETLRNFVLNKPRGGVFRHVNLLVPPKDPRAQMGFIIMEPADTPPMSGSNSICVSTVLLDSGIIAMQEPVTHMVLEAPGGIIEVEAECRNGKAERISVRNVPSFADRLDAPLDVTGLGTIMVDTAYGGDSFVIVDAAQIGMKIEPGQARELAEIGVKITKAANEQLGFRHPERDWRHISFCQITEPVTREGDVLTGVNTVAIRPAKFDRSPTGTGCSARMAVLHAKGQMKAGERFIGKSVLGTEFHCRLDKVLELGGKPAISPIISGRAWVTGTSQLMLDPSDPFPHGYRLSDTWPRDELEHHHHHH", "soluble on expression in E. coli": "soluble"}, {"sequence": "SSFFGFGQTAEIDIVLNDAETRKKVEHKTEDGKKDKYFLFYDGETVSGKVNVTLKTPGKRLEHYGIKIEFVGQIELYYDRGNHHEFVSLVKDLARPGELSQSQTFDFELTHVEKPYESYTGQNVKLRYFLRATISRRLNDISKEMDIVVQTLCTYPEINSSIKMEVGIEDCLHIEFEYNKSKYHLRDVIVGKIYFLLVRIKIKHMEIDIIKRETTGTGPSVYHENDTIAKYEIMDGAPVRGESIPIRLFLAGYEMTPTMRDINKKFSVRYYLNLVLIDEEERRYFKQQEITLWRKGDIVRRSMSQQATIAAQRYEGSNPEPTSAQAKEETD", "soluble on expression in E. coli": "soluble"}, {"sequence": "MPPLRQFLNRLLALTIRMQNVIFERFELLLSQQIETAIANGIFEAGVETLRAERFTIESCESVYTHPDTGSVTNYLKVEQVQRNNIRTAVEMLEFAAKYQGQLMVNQKSSNAAVSIPTHSIFDCDGGVVPRVLLVRPQKETRVPVEQLESSTWQQVSAEEFVTAWSREVDELPRFTTDYLHLVTGILLPIWKILPQKNSRVFRLQTSDGQKILGRVVHASDIQTVTEQLGLKNKLEHHHHHH", "soluble on expression in E. coli": "soluble"}, {"sequence": "MTIGIIGSGALGSGIARILASKGISAIISNSRGPESLASLVRELGGSIKAGTAEEAARADIVFAAVRWVDAEKVLSSLPAWEGRIVIDATNPVEFIDPDSPDANDPTNPLAAYGIKAVDLHGKYSSEIFRQFVPGARVVKAFNHLDANVFSAPEVTGGKRVLFYSGDDAAAKTEVRKIIEDTGFVPVDLGTLDVGGPLASLPFGPLAAQNFIRVLEHHHHHH", "soluble on expression in E. coli": "soluble"}, {"sequence": "MAHHHHHHMLYSSIRYGRNCTGTNETVKPLGPCVTPLGTILGVFNGVFGYSNCNDSYVSTELRYINLTVPELNNETGQLTYISKQFYTGLAWQCVEYARRYWMQRGTPQPAYFDSVLGAADVWNLTFVRLLSNASITLPLRRYWNGDRVTDNHQIPAIGDIIIYPVQDGGFPYGHVAVIANVELSTHGAIYVAEQNWANAVWSSPHHNYTRRIPMFYDMLTSTITLDDSEHQIIGWMRYG", "soluble on expression in E. coli": "not soluble"}, {"sequence": "MESRYVLTGRYDSAPATDGSGTALGWTVAWKNNYRNAHSATTWSGQYVGGAEARINTQWLLTSGTTEANAWKSTLVGHDTFTKVKPSAASGGGSAEAGITGTWYNQLGSTFIVTAGADGALTGTYESA", "soluble on expression in E. coli": "soluble"}, {"sequence": "QSRERLVKWLQDAYAMEKEAETMMAAMASRIEHYPELKRRIEQHVEETQQQSAGVQRCLELLNGSIPTAKGMLSSVLASMHAAGNSMMTDEVTKGVGISYAFEHLEIASYRALVVAARSAGEQEVAQICEDILQQEIEMAEWLIEHQEAIVVAFLE", "soluble on expression in E. coli": "not soluble"}, {"sequence": "MSLTSTIIDVRAKLYTWKGDVQKIHENFCTNAADLVNQDNISNDRWATYKFLSWLVVEVETSDGHIGIGNAALSPKPCKSVVDNYLKPAIIGESIWDYEHIWQKMYRQTLAWGRKGIGMTAISAVDIAIWDALGKTVKQPVFKLLGGKTKSKLPCYASKLYSQPLDSLAKEAKDYLDQGFKAMKLRLGWGPNDGAEGMRKNIELIRTVRSVVGEDVDLMADVYMGWTFEYAKRMMRLIDNENLRWLEEPVIADDIDGYADLKASCQTPISGGEHEYTLFGFRQLLEKKAVDVVQFDTNRVGGITQAHKICALAEAFQIPVIPHAGQVHNFHISMSSINAPIVEYFPFWPVEIGNELFWYIFDGEPQAKDGYIELDDTKPGLGIELSEKYLKDFVIEVEGHHHHHH", "soluble on expression in E. coli": "soluble"}, {"sequence": "MGSDKIHHHHHHMDNLPDKLQNIVEEVDHQIAPKLEEIEDQIVYNQAKVLKAFQDNNVAEADLNGATGYGDDDIGRDKLDKVYAQVFDTEDALVRPQFVSGTHTLFTALSGNLKYGDTLTYLTGMPYDTLQKVIGLTDDKRGTLAEKGVKFSYVPLSDENLIDYDVAEKILKRDQPKMVAIQRSRGYSTRKTFTVEQIKEMISFVKKVSPNSIIFIDNCYGEFAEKYEPTEYGADLMAGSLIKNAGGGLAKTGGYIVGKKDLVENAKLQLTAPGCTDEGATIGHLHDLYEGFFLAPNVTGMAEKGMIFAAALFEKMGLNVTPAWDEKRSDIIETIIFNDPEKMVKFVQEVQKNSPIDSFVTPEAVHMEGYEDKIIMAAGNFVSGSTIEFSADGPIRPPYAVYMQGGLTYAHDKVAIINSVRDTFFNKK", "soluble on expression in E. coli": "not soluble"}, {"sequence": "SLMVLAMESRVAPEIPGLIQPGNVTQDLKMMVCKLLNSPKPTKTFPGSQPVSFQHSDVEEKLLAHDYYVCEKTDGLRVLMFIVINPVTGEQGCFMIDRENNYYLVNGFRFPRLPQKKKEELLETLQDGTLLDGELVIQTNPMTKLQELRYLMFDCLAINGRCLTQSPTSSRLAHLGKEFFKPYFDLRAAYPNRCTTFPFKISMKHMDFSYQLVKVAKSLDKLPHLSDGLIFTPVKAPYTAGGKDSLLLKWKPEQENTVDFKLILDIPMVEDPSLPKDDRNRWYYNYDVKPVFSLYVWQGGADVNSRLKHFDQPFDRKEFEILERTYRKFAELSVSDEEWQNLKNLEQPLNGRIVECAKNQETGAWEMLRFRDDKLNGNHTSVVQKVLESINDSVSLEDLEEIVGDIKRCWDERRANMAGGSGRPLPSQSQNATLSTSKPVHSQPPSNDKEPKYVDEDDWSD", "soluble on expression in E. coli": "soluble"}, {"sequence": "MSLNTFWKSFPDVERSLTETCELIEQTLHTRNEDIEEALVTLARSGGKLLRPAFFFLFAQLGDEEKQEKQQLLKIAASLEILHMATLIHDDIIDDSPLRRGAVTIQSQYGKDVAVYTGDLLFTEFFTLIADAMNGSEFMKINAQGMKRLLLGELDQMSHRFDRRMSIPAYLRSVNGKTAELFSLSCLEGAYFGHSSKEVQRLAKRIGRHIGIAFQVYDDILDYTADTETLKKPALEDLSQGVYTLPLLFAYQAAPDVFSPYLDKGRAITLEEAAEVAALVNDYHGVTEAQAFAKKVTNKAITDIQQLPDGTAKETLLSLTELLLHRSFEGHHHHHH", "soluble on expression in E. coli": "soluble"}]}]}
